Data published in the supplement of paper PMC9732359.
± gives the uncertainty stated by the source.

test: protein stability index of a GFP-peptide fusion (yeast GPS) (PSI 1-4); higher = more stable; sorted into four equal gates, so the index is relative within each strain; settings: pdr5∆
In short: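 The protein stability index of a peptide was calculated by multiplying its read frequency in each gate by that gate's number and adding the products. The peptides were tiled 17-residue stretches of yeast proteins, fused downstream of GFP on a Cherry-expressing plasmid and carried in yeast as a pooled library. Mid-log cultures in leucine-free medium were sorted into four equal gates by GFP/Cherry ratio, and each gate's plasmids were PCR-amplified and Illumina-sequenced.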

Row | Sequence | protein stability index
1 | KPFGSAKSDETKQASSF [YLR335W/NUP2] | 2.09 ± 0.12
2 | KPGSIDAISQVINIAKA [FAS1] | 2.87 ± 0.061
3 | KPIQNGEIIDISAFTQF [ARP9] | 2.76 ± 0.085
4 | KPLKKGSADIGASVISL [SIR4] | 3.14 ± 0.055
5 | KPPISDSVFSFGPKKEN [YLR335W/NUP2] | 2.81 ± 0.057
6 | KPSKPFNVDDVLKFTFT [MED8] | 2.83 ± 0.051
7 | KPVKVALIFIFFAYFIG [YJL039C/NUP192] | 1.4 ± 0.037
8 | KPYDINVVLVTNDRLNR [DIS3] | 2.92 ± 0.098
9 | KPYYFSNNHKLSESDKK [RPN12] | 1.47 ± 0.077
10 | KQFFQMTPLLVNCLELL [PCI8] | 1.32 ± 0.034
11 | KQGRIKNATEELLRLAN [CSN12] | 3 ± 0.13
12 | KQIVHDSGRGAPLAKVV [RPL2A] | 2.16 ± 0.18
13 | KQLQQPKSSPLKKNNYN [SIR4] | 2.98 ± 0.068
14 | KQQGVGLPTDAYVAIEQ [RPN8] | 2.7 ± 0.15
15 | KREKRVFLKHSLSIKLA [RPN6] | 3.22 ± 0.09
16 | KRIKPNTEITQKSSKEN [ECM29] | 2.9 ± 0.074
17 | KRKCGHTNQLRPKKKLK [RPL40A] | 2.84 ± 0.036
18 | KRKSAQEPELSLDQGDA [SMC4] | 3.19 ± 0.1
19 | KRLGPKRANNIRKFFGL [RPS6A] | 3.56 ± 0.071
20 | KRNGDEVYTLVDSQGLP [ARP7] | 3.34 ± 0.11
21 | KRPNNKTLEKLESTIAE [IRR1] | 3.35 ± 0.1
22 | KRPYESSRLDAELKLAG [RPS9A] | 3.05 ± 0.065
23 | KSAYANTEKDYKMVQEQ [SMC2] | 3.02 ± 0.066
24 | KSDDDDHTVDEIDHVEY [SRB8] | 2.46 ± 0.08
25 | KSDEAKWKPVLSHIVYF [RPN5] | 2.21 ± 0.062
26 | KSGKRKPNIILDEDDTN [RPC31] | 3.12 ± 0.092

Row | Sequence | protein stability index
27 | KSKERSSQFVRLASEPG [YMR129W/POM152] | 2.62 ± 0.13
28 | KSKREEEAKSVLPAATK [ARP9] | 1.37 ± 0.067
29 | KSLALLGYNFDGSAIED [SNF5] | 2.99 ± 0.083
30 | KSLPLLITVMEKSPDPT [YCS4] | 1.87 ± 0.043
31 | KSNVIDSMLFVFGFRAN [SMC4] | 2.39 ± 0.054
32 | KSSELELQKLVHDLNKY [SMC2] | 3.41 ± 0.079
33 | KSSIEKDPSPEILVLYN [SIN4] | 2.9 ± 0.055
34 | KSVLGDGKKHSVFYTIL [RPO31] | 2.42 ± 0.085
35 | KTAMAELALLNHWRQNK [BRR2] | 1.79 ± 0.12
36 | KTARGKAALERLKVFEG [RPL16A] | 2.37 ± 0.089
37 | KTFKNPKYESLKLEYYN [RPN5] | 1.49 ± 0.089
38 | KTFSRLDALTRHIKSKH [RPN4] | 1.25 ± 0.087
39 | KTKAMVPPINCIFNFLQ [SME1] | 1.65 ± 0.037
40 | KTKFQYKFLDQNSDAST [YIL149C/MLP2] | 3.01 ± 0.096
41 | KTKTSLLPTIKRTICKK [RPR2] | 3.18 ± 0.13
42 | KTKYILQRPTATDEESV [CSN12] | 3.12 ± 0.081
43 | KTLKRMIKESSTANPNI [POP1] | 2.76 ± 0.091
44 | KTLVYLEKCEAEFKKRK [YCS4] | 3.69 ± 0.17
45 | KTQLGSTMTEPVKQSFI [GAL11] | 2.9 ± 0.06
46 | KTRKTYCKGKTCRKHTQ [RPL42A] | 1.69 ± 0.068
47 | KTRVGSVTAQVYKIALR [RPC82] | 1.49 ± 0.068
48 | KTSKRTKRWYKNAGLGF [RPS11A] | 2.84 ± 0.12
49 | KTSLSIKVENLNDTTEK [SMC2] | 2.97 ± 0.081
50 | KTVKELRQLLKERYTVE [RRI1] | 2.1 ± 0.062
51 | KTVPFQVNQLQRILEVL [SSN3] | 2.11 ± 0.031
52 | KVAPAPFGAKSTKSNKT [RPL8A] | 2.84 ± 0.076

Row | Sequence | protein stability index
53 | KVDGKVRTDTTYPAGFM [RPS4A] | 3.18 ± 0.13
54 | KVEIPLPNEAGRLEIFK [RPT4] | 3.09 ± 0.17
55 | KVEKGVNIEPFNIDDEI [LIN1] | 3 ± 0.21
56 | KVIKVLGRTGSRGGVTQ [RPS28A] | 3.04 ± 0.058
57 | KVPDISSDGQLKKFRES [BRR2] | 3.49 ± 0.14
58 | KVSKNSTSFKNPRRLEI [YMR153W/NUP53] | 2.87 ± 0.057
59 | KVSYAVKKPQKSKTSTG [SNM1] | 3.15 ± 0.13
60 | KYLYLRAVGGEVGASAA [RPL12A] | 1.99 ± 0.13
61 | KYRKRQLVTREAQIKDW [FAS2] | 2.86 ± 0.15
62 | KYSDILLKKATKPEVAS [CDC53] | 2.23 ± 0.12
63 | LADILKANISLETLEHN [RPO21] | 2.91 ± 0.1
64 | LADKLENYEGKQDKTLQ [YIL149C/MLP2] | 3.22 ± 0.22
65 | LAKSKASLTAARTAANS [RPN6] | 2.69 ± 0.12
66 | LAKTKENYDAKIELEKK [YIL149C/MLP2] | 3.47 ± 0.075
67 | LANFVAKGFYHTPMVNF [SRB8] | 2.27 ± 0.044
68 | LAPTQLSAEYLVILKPD [SIN4] | 2.74 ± 0.13
69 | LAQLTSKLIPEVINKEI [RPS1A] | 3.28 ± 0.1
70 | LARGLRESTKALTRGEA [RPS12] | 3.65 ± 0.12
71 | LARQVKLLLLNTSAIQE [YIL149C/MLP2] | 1.75 ± 0.073
72 | LASFEKTTDHLFDAAFY [RPO31] | 2.79 ± 0.046
73 | LATGPNLTSEIEDLRAD [YOR098C/NUP1] | 3.25 ± 0.11
74 | LATPVQFELLSRRWRQR [BRR2] | 1.87 ± 0.054
75 | LATRRVLQEYRLTKQAF [RPO21] | 3.1 ± 0.1
76 | LCKSATTKMWPTNCPLR [BRR2] | 2.68 ± 0.12
77 | LCQINKCSTRGLSTDHT [YML103C/NUP188] | 2.47 ± 0.23
78 | LDDNSTSLEKQINSIKK [YJL041W/NSP1] | 3.01 ± 0.058

Row | Sequence | protein stability index
79 | LDEIFSGCDSTKPSLRK [ECM29] | 2.55 ± 0.06
80 | LDELQWKSPEWIQVFGL [MED6] | 2.41 ± 0.053
81 | LDEMELHPYNSRGLFEK [YDL116W/NUP84] | 3.04 ± 0.1
82 | LDENKWYKFNDDKVSVV [UBP6] | 3.06 ± 0.091
83 | LDEVDAALDLSHTQNIG [SMC2] | 3.21 ± 0.1
84 | LDGKFSLFHTAVSVANG [RPN2] | 2.03 ± 0.057
85 | LDKFTDGGLFTLFVRDQ [QCR2] | 3.14 ± 0.07
86 | LDKVINKELPINHTILG [RPN8] | 2.27 ± 0.08
87 | LDPINLPLDSQDDEYVK [PRP8] | 3.01 ± 0.066
88 | LDPISLILIPGETMWVP [RPN13] | 2.45 ± 0.049
89 | LDTYLPEDLNSLYIYYL [SIR2] | 2.45 ± 0.054
90 | LEANGRSLEKVNNSVSK [SSN2] | 3.47 ± 0.12
91 | LEASLNSITKDNIDYAP [YJL039C/NUP192] | 2.43 ± 0.041
92 | LEATWNFIEPGINQILG [CDC53] | 2.75 ± 0.27
93 | LEDIYTSAHEAIRADPA [RPL5] | 2.98 ± 0.082
94 | LEDLVFPTEIVGKRVRY [RPS7A] | 3.52 ± 0.28
95 | LEEKKKRPNNKTLEKLE [IRR1] | 3.43 ± 0.1
96 | LEESDVEDTLHVNKRKR [YOR098C/NUP1] | 2.89 ± 0.095
97 | LEEVSLKWIDTASKFGK [RPL3] | 1.91 ± 0.092
98 | LEFARITPMNDDQCMLI [SIN4] | 2.82 ± 0.089
99 | LEHVLLVPTASFFIASQ [FAS1] | 1.46 ± 0.038
100 | LEKFLQGRDTSKLPDPE [SRP72] | 2.2 ± 0.06
101 | LENATWTMRIEGRLLDN [SNF12] | 2.89 ± 0.12
102 | LENKADPLVSLMMVEKV [RPT6] | 2 ± 0.069
103 | LEPGCSVLLHHKTMSIV [RPT2] | 1.58 ± 0.049
104 | LEQKIHEVEEILNELQP [SMC1] | 2.73 ± 0.22
